Reference: patent US20250163139A1 (Hoffmann-La Roche, published 2025)

T1: cynomolgus monkey IL6 (cynomolgus monkey, UniProt P79341 28-212, limits assumed)
T1 construct: also called cynomolgus IL6; cyIL-6
T1 sequence (looked up): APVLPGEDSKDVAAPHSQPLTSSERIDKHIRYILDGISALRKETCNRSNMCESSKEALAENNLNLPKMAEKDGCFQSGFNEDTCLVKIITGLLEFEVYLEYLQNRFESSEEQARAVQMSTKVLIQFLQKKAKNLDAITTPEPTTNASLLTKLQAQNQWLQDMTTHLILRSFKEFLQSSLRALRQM

T2: human VEGF121 (human, UniProt P15692 181-395)
T2 construct: The limits of the proteins used (Humanzyme HZ-1206); also called human VEGFA121
T2 sequence: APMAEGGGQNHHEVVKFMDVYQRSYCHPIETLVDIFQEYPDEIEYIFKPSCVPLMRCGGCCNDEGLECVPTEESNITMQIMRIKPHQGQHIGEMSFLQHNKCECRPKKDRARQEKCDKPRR


How the values were obtained:
[1] = molecular target: T3, human IL6 (human, UniProt P05231 30-212); assay: SPR, Fab captured on anti-Fab chip, human IL6 as analyte
T3 construct: also called Interleukin-6
Procedure: (§1) A Human Fab Binder (28958325, Cytiva) was diluted at a final concentration of 10 μg/ml in 10 mM sodium acetate buffer, pH 5.0 and immobilized on a CM5 sensor chip using standard amine coupling chemistry. […] The reference channel was treated accordingly.
(§2) Prior to the protein measurements five startup cycles were performed for conditioning purposes. On each cycle, HBS-EP+ buffer was flowed for 120 s followed by the regeneration of the derivatized chip surface by applying 10 mM Glycine buffer pH2.0 for 60 s. Fab fragment at a concentration of 75 nM was captured on this surface for 60 s at a flow rate of 10 μl/min in HBS-EP+ buffer. No Fab fragment was applied to the reference channel. […] Regeneration of the derivatized chip surface was achieved as described above. Data were evaluated with 8K Evaluation software (Biacore Insight Evaluation 3.0). Double referencing was used and the 1:1 Binding model was used to fit the raw data.

[2] = molecular target: T3, human IL6; assay: cell-based or functional assay
[3] = molecular target: human VEGF-A (isoform not given) (human, UniProt P15692-4 27-191, limits assumed); assay: cell-based or functional assay
[4] = molecular target: T1, cynomolgus monkey IL6; assay: SPR, Fab captured on anti-Fab chip, cynomolgus IL6 as analyte
Procedure: as §1, §2

[5] = molecular target: T2, human VEGF121; assay: competition ELISA: Fab titrated against 10 pM VEGF121, free VEGF detected on plate-coated VEGF-R1
Procedure: (§3) The contact time between the Fab-Antigen mixture and the receptor-coated plate was restricted to 10 min at RT in order to minimize interference with the binding equilibria. […] The latter is detected exploiting the chromogenic conversion of the HRP substrate 3,3′,5,5′-tetramethylbenzidine TMB to 3,3′,5,5′-tetramethylbenzidine […], which can be followed by a change in absorbance at 450 nm. TMB was prewarmed to room temperature and incubated on the plate for 5 min before being quenched by the addition of IN H₂SO₄.

[6] = molecular target: human VEGF165 (human, UniProt P15692-4 27-191); assay: competition ELISA: Fab titrated against 10 pM VEGF165, free VEGF detected on plate-coated VEGF-R1
Procedure: as §3

[7] = molecular target: T3, human IL6; assay: SPR in analogy to Example 3, Fab captured on anti-Fab chip
Procedure: as §1, §2

[8] = molecular target: T1, cynomolgus monkey IL6; assay: as above
Procedure: as §1, §2

Row | Kd [1] [nM] | IC50, inhibition of IL-6/IL-6R-induced ICAM-1 surface expression on HRMECs (flow cytometry) [2] [nM] | IC50, inhibition of VEGF-A-induced HUVEC proliferation (alamarBlue) [3] [nM] | Kd [4] [nM] | IC50 [5] [nM] | IC50 [6] [nM] | Kd [7] [nM] | Kd [8] [nM] | Binder
1 | 3.5 | – | – | – | – | – | – | – | VH6L-BM (Fab, V domains shown, Prior art control, prepared by recombinant expression; also called bispecific antibody VH6L of WO2012/163520) VH: YYQLVESGGGLVQPGGSLRLSCAADGFLFSGYAMSWIRQAPGKGLEWIGQISGSGGSTVYNYNVLGRFTISRDNSKNTLYLQMNSLRAEDTAVYYCARDTGYFDHWGQGTLVTVSS VL: NIQKTQSPSSLSASVGDRVTITCRALWHISSYLAWYQQKPGKAPKLLIYAASHLHYGVPSRFSGSGSGTDFTLTISSLQPEDFATYYCQQYSGLPYTFGQGTKVEIK
2 | 0.069 | 1.52 | 2.06 | 1.48 | 0.458 | 0.111 | – | – | 6HVL_4 (Fab, V domains shown, Bispecific Fab; also called VEGF/IL6-bispecific antibody 6HVL_4) VH: YPQLVESGGGLVQPGGSLRLSCEASVLFKHQDMSWVRQAPGKGLEWVGSIDPRGDHKYYNTKFIDRFTISRDNSKNTLYLQMNSLRAEDTAVYYCARDLDFMDEWGQGTLVTVSS VL: AIYMHQEPSSLSASVGDRVTITCQASYWLNSELAWYQQKPGKAPKLLIYDGDDRYPEVPSRFSGSGSHEDYTLTISSLQPEDFATYYCQQYRYTPYTFGQGTKLEIKR
3 | – | – | – | – | – | – | 0.022 | 1.3 | 6HdL2.05 (Fab, V domains shown, also called monospecific anti-IL6 antibody 6HdL2.05) VH: YPQLVESGGGLVQPGGSLRLSCEASVLFKHQDMSWVRQAPGKGLEWVGSISPSGGSTYYNDNVLGRFTISRDNSKNTLYLQMNSLRAEDTAVYYCARDLDFMDEWGQGTLVTVSS VL: DIQMTQSPSSLSASVGDRVTITCRASQGISNYLAWYQQKPGKAPKLLIYDGDDRYPEVPSRFSGSGSGTDFTLTISSLQPEDFATYYCQQYYSTPYTFGQGTKLEIKR
4 | 0.065 | – | – | 1.39 | 0.528 | 0.135 | – | – | 6HVL_4_YHE (Fab, V domains shown) VH: YPQLVESGGGLVQPGGSLRLSCEASVLFKHQDMSWVRQAPGKGLEWVGSIDPRGDHKYYNTKFIDRFTISRDNSKNTLYLQMNSLRAEDTAVYYCARDLDFMDEWGQGTLVTVSS VL: AIQMTQSPSSLSASVGDRVTITCQASYWLNSELAWYQQKPGKAPKLLIYDGDDRYPEVPSRFSGSGSHEDYTLTISSLQPEDFATYYCQQYRYTPYTFGQGTKLEIKR
